Test results reported in the Immune Epitope Database (IEDB).

Columns and labels:
HLA-A*01:01 = assay: IEDB peptide-MHC binding, purified MHC/direct/fluorescence; filed as Kd, often an IC50 or EC50 that approximates it; ≥ and ≤ were set here for values at or beyond the usual limits of such assays
HLA-A*02:01 [1] = assay: as above
HLA-A*03:01 [2] = assay: as above
HLA-A*11:01 = assay: as above
HLA-A*24:02 [3] = assay: as above; conditions: source organism: Escherichia coli O157:H7
HLA-A*31:01 [4] = assay: as above
HLA-B*07:02 [5] = assay: as above
HLA-B*15:01 [6] = assay: as above
HLA-B*18:01 = assay: as above
HLA-B*27:05 = assay: as above
HLA-B*40:01 = assay: as above
HLA-B*44:02 = assay: as above
HLA-B*58:01 = assay: as above
HLA-A*29:02 [7] = assay: IEDB peptide-MHC binding, purified MHC/competitive/fluorescence; filed as Kd, often an IC50 or EC50 that approximates it; ≥ and ≤ were set here for values at or beyond the usual limits of such assays; conditions: source organism: Campylobacter jejuni subsp. jejuni NCTC 11168 = ATCC 700819
HLA-A*03:01 [8] = assay: as above; conditions: source organism: Salmonella enterica subsp. enterica serovar Typhi
HLA-A*31:01 [9] = assay: as above
HLA-B*15:01 [10] = assay: as above; conditions: source organism: Salmonella enterica subsp. enterica serovar Typhi
HLA-A*29:02 [11] = assay: IEDB peptide-MHC binding, purified MHC/direct/fluorescence; filed as Kd, often an IC50 or EC50 that approximates it; ≥ and ≤ were set here for values at or beyond the usual limits of such assays
HLA-A*69:01 = assay: as above
HLA-B*39:01 [12] = assay: as above
HLA-B*46:01 = assay: as above
HLA-B*48:01 = assay: as above
HLA-B*57:01 = assay: as above
HLA-B*07:02 [13] = assay: IEDB peptide-MHC binding, purified MHC/competitive/fluorescence; ≥ and ≤ were set here for values at or beyond the usual limits of such assays
HLA-A*02:01 [14] = assay: as above; conditions: source organism: Zaire ebolavirus
HLA-A*03:01 [15] = assay: as above; conditions: source organism: Zaire ebolavirus
HLA-A*24:02 [16] = assay: as above; conditions: source organism: Zaire ebolavirus
HLA-B*15:01 [17] = assay: as above; conditions: source organism: Zaire ebolavirus
HLA-B*15:09 = assay: IEDB peptide-MHC binding, purified MHC/direct/fluorescence; filed as Kd, often an IC50 or EC50 that approximates it; ≥ and ≤ were set here for values at or beyond the usual limits of such assays
HLA-B*39:01 [18] = assay: IEDB peptide-MHC binding, purified MHC/competitive/fluorescence; filed as Kd, often an IC50 or EC50 that approximates it; ≥ and ≤ were set here for values at or beyond the usual limits of such assays; conditions: source organism: Yersinia pseudotuberculosis IP 31758
[19] = source organism: Escherichia coli O157:H7
[20] = source organism: Mycolicibacterium gilvum
[21] = source organism: Shigella boydii
[22] = source organism: Zaire ebolavirus
[23] = source organism: Mammarenavirus lassaense
[24] = source organism: Giardia lamblia ATCC 50803

LLKLWIDKV
Kd (HLA-A*01:01; [19]): ≥ 20 µM
Kd (HLA-A*02:01 [1]; [19]): 0.0367 µM
Kd (HLA-A*03:01 [2]; [19]): ≥ 20 µM
Kd (HLA-A*11:01; [19]): ≥ 20 µM
Kd (HLA-A*24:02 [3]): ≥ 20 µM
Kd (HLA-A*31:01 [4]; [19]): ≥ 20 µM
Kd (HLA-B*07:02 [5]; [19]): ≥ 20 µM
Kd (HLA-B*15:01 [6]; [19]): ≥ 20 µM
Kd (HLA-B*18:01; [19]): ≥ 20 µM
Kd (HLA-B*27:05; [19]): ≥ 20 µM
Kd (HLA-B*40:01; [19]): ≥ 20 µM
Kd (HLA-B*44:02; [19]): ≥ 20 µM
Kd (HLA-B*58:01; [19]): ≥ 20 µM

LYAYWYHLY
Kd (HLA-A*29:02 [7]): 0.0008 µM

MTDAIRTLK
Kd (HLA-A*03:01 [8]): 0.134 µM
Kd (HLA-A*31:01 [9]; source organism: Salmonella enterica subsp. enterica serovar Typhi): 2.31 µM
Kd (HLA-B*15:01 [10]): ≥ 20 µM

PHDPDFLVL
Kd (HLA-A*01:01; [20]): ≥ 20 µM
Kd (HLA-A*02:01 [1]; [20]): ≥ 20 µM
Kd (HLA-A*03:01 [2]; [20]): ≥ 20 µM
Kd (HLA-A*29:02 [11]; [20]): ≥ 20 µM
Kd (HLA-A*31:01 [4]; [20]): ≥ 20 µM
Kd (HLA-A*69:01; [20]): ≥ 20 µM
Kd (HLA-B*15:01 [6]; [20]): ≥ 20 µM
Kd (HLA-B*18:01; [20]): ≥ 20 µM
Kd (HLA-B*27:05; [20]): ≥ 20 µM
Kd (HLA-B*39:01 [12]; source organism: Mycolicibacterium gilvum PYR-GCK): 6.76 µM
Kd (HLA-B*40:01; [20]): ≥ 20 µM
Kd (HLA-B*44:02; [20]): ≥ 20 µM
Kd (HLA-B*46:01; [20]): ≥ 20 µM
Kd (HLA-B*48:01; [20]): ≥ 20 µM
Kd (HLA-B*57:01; [20]): ≥ 20 µM
Kd (HLA-B*58:01; [20]): ≥ 20 µM

PLSRLFYPK
Kd (HLA-A*03:01 [2]; [21]): 0.649 µM
Kd (HLA-A*11:01; [21]): 0.129 µM
Kd (HLA-A*31:01 [9]; [21]): 0.0748 µM

RPSSSQIPS
IC50 (HLA-B*07:02 [13]; source organism: Sudan ebolavirus): 10.9 µM

RTRREAIVN
IC50 (HLA-A*02:01 [14]): ≥ 119 µM
IC50 (HLA-B*07:02 [13]; [22]): ≥ 92.6 µM

RVIPVYQVN
IC50 (HLA-A*02:01 [14]): ≥ 87.2 µM
IC50 (HLA-A*03:01 [15]): ≥ 277 µM
IC50 (HLA-A*24:02 [16]): 51.6 µM
IC50 (HLA-B*07:02 [13]; [22]): ≥ 151 µM
IC50 (HLA-B*15:01 [17]): ≥ 72.8 µM

SHGIDVTDL
Kd (HLA-A*01:01; [23]): ≥ 20 µM
Kd (HLA-A*02:01 [1]; [23]): ≥ 20 µM
Kd (HLA-A*03:01 [2]; [23]): ≥ 20 µM
Kd (HLA-A*11:01; [23]): ≥ 20 µM
Kd (HLA-A*29:02 [11]; [23]): ≥ 20 µM
Kd (HLA-A*31:01 [4]; [23]): ≥ 20 µM
Kd (HLA-A*69:01; [23]): ≥ 20 µM
Kd (HLA-B*07:02 [5]; [23]): ≥ 20 µM
Kd (HLA-B*15:01 [6]; [23]): ≥ 20 µM
Kd (HLA-B*15:09; [23]): ≥ 20 µM
Kd (HLA-B*18:01; [23]): ≥ 20 µM
Kd (HLA-B*27:05; [23]): ≥ 20 µM
Kd (HLA-B*39:01 [12]; [23]): ≥ 20 µM
Kd (HLA-B*40:01; [23]): ≥ 20 µM
Kd (HLA-B*44:02; [23]): ≥ 20 µM
Kd (HLA-B*46:01; [23]): ≥ 20 µM
Kd (HLA-B*48:01; [23]): ≥ 20 µM
Kd (HLA-B*57:01; [23]): ≥ 20 µM
Kd (HLA-B*58:01; [23]): ≥ 20 µM

TVDSLSPLK
Kd (HLA-A*03:01 [2]; [24]): 0.364 µM
Kd (HLA-A*11:01; [24]): 0.0123 µM
Kd (HLA-A*31:01 [9]; [24]): ≥ 20 µM

VATAHGSTL
IC50 (HLA-A*02:01 [14]): ≥ 136 µM
IC50 (HLA-A*24:02 [16]): 12.7 µM
IC50 (HLA-B*07:02 [13]; [22]): ≥ 70.5 µM

YRYEFNNDW
Kd (HLA-B*15:09; source organism: Yersinia pestis CA88-4125): ≥ 20 µM
Kd (HLA-B*39:01 [18]): 0.996 µM
